Experimental data taken from CN115677858A (HEFEI HANKEMAB BIOTECHNOLOGY CO LTD; ANHUI ANKE …, dated 2023).

B1: 抗人PD-L1/CD137双特异性抗体 结构B (1st scFv-L1-Fc-L2-2nd Fab) (bispecific antibody, human IgG4 S228P, kappa, F234A L235A)
heavy: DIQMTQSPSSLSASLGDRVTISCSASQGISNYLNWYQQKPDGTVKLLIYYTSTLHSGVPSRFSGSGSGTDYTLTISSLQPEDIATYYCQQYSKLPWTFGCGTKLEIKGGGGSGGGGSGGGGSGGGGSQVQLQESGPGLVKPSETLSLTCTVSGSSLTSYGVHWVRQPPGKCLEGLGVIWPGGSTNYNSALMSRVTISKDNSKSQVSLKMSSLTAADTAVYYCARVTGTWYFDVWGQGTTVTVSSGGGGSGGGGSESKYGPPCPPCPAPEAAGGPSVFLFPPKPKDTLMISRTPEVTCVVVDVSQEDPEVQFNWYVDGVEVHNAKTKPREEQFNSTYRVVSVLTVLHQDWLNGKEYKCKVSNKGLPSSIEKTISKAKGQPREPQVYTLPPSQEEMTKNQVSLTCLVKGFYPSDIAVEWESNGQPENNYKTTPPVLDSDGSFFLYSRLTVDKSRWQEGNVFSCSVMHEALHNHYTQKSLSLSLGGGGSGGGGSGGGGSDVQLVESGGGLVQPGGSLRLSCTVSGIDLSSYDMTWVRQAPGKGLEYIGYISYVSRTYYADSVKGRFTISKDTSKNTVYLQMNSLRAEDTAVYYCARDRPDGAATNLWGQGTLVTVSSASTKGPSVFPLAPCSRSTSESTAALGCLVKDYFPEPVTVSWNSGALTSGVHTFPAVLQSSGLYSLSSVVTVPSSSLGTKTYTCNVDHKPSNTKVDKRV
light: DIQMTQSPSTLSASVGDRVTITCQSSQNVYSNNRLSWYQQKPGKAPKLLIYWTSFLASGVPSRFSGSGSGTEFTLTISSLQPDDFATYYCAGGYSGNLYTFGQGTKLEIKRTVAAPSVFIFPPSDEQLKSGTASVVCLLNNFYPREAKVQWKVDNALQSGNSQESVTEQDSKDSTYSLSSTLTLSKADYEKHKVYACEVTHQGLSSPVTKSFNRGEC
notes: Anti-CD137 scFv at the N-terminus of human IgG4 Fc, anti-PD-L1 Fab at its C-terminus; also called B结构
B2: 抗人PD-L1/CD137双特异性抗体 结构D6 (D2的突变分子) (bispecific antibody, human IgG4 S228P, kappa, F234A L235A)
heavy: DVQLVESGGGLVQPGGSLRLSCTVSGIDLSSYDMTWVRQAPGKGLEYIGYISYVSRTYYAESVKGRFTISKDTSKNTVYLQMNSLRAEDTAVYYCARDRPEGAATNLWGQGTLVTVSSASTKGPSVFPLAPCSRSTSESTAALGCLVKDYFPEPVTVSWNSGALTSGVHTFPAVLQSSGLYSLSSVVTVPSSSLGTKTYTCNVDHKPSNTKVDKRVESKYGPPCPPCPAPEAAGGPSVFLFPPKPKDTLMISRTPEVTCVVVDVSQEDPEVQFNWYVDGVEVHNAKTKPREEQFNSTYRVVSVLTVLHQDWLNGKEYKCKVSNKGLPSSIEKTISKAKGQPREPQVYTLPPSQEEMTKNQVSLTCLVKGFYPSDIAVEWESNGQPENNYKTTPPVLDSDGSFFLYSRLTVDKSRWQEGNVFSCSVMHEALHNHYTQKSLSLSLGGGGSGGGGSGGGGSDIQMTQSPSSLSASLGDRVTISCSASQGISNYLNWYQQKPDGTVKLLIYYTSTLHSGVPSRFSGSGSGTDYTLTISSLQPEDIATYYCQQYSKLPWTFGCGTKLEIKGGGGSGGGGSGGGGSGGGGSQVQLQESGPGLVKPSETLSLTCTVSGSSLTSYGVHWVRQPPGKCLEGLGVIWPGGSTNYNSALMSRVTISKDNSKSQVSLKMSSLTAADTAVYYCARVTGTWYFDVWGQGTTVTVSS
light: B1 light
notes: Mutant of D2; also called D6结构
B3: 抗人PD-L1/CD137双特异性抗体 结构D3 (D1的突变分子) (bispecific antibody, human IgG4 S228P, kappa, F234A L235A)
heavy: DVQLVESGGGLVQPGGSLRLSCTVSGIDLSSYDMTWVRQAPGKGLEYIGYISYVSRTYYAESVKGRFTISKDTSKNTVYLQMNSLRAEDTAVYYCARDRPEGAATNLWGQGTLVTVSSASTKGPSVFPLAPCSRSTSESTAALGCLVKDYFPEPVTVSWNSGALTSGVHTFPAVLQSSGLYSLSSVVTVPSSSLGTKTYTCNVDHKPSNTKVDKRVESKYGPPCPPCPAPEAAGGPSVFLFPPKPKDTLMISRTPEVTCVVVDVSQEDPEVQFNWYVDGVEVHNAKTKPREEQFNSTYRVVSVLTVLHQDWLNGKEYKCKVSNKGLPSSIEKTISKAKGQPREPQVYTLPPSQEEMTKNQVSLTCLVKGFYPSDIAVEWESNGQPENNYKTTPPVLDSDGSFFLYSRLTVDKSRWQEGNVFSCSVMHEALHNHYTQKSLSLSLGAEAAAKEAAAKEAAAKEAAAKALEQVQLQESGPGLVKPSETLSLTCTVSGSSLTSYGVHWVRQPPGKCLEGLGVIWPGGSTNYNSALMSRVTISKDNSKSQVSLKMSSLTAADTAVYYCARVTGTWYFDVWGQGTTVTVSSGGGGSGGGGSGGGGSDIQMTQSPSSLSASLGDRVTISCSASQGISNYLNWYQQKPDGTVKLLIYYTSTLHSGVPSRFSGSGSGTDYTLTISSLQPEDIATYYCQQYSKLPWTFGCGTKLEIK
light: B1 light
notes: Mutant of D1; also called D3结构

What was measured:
[1] = molecular target: T1, 人PD-L1全长 (SEQ ID No.22)，表达于CHO-K1细胞 (human, UniProt Q9NZQ7 19-290); assay: flow cytometry (FACS) on CHO-K1/hPD-L1 cells, goat anti-human FITC
T1 construct: The full-length entry was transfected; also called CHO-K1/hPD-L1; 细胞表面人PD-L1
T1 sequence (Q9NZQ7 19-290 limits assumed): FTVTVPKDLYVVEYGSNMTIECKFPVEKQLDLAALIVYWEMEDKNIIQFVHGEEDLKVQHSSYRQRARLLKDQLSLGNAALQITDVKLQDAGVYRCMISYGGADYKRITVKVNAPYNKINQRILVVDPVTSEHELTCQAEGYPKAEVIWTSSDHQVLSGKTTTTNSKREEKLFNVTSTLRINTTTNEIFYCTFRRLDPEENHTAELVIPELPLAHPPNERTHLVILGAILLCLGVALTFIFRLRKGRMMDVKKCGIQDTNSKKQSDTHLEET

[2] = molecular target: T2, 人PD-L1胞外段 (SEQ ID No.22 第19-238位) (human, UniProt Q9NZQ7 19-238); assay: ELISA, human PD-L1 extracellular domain coated, goat anti-human HRP
T2 construct: also called 人PD-L1抗原
T2 sequence (Q9NZQ7 19-238): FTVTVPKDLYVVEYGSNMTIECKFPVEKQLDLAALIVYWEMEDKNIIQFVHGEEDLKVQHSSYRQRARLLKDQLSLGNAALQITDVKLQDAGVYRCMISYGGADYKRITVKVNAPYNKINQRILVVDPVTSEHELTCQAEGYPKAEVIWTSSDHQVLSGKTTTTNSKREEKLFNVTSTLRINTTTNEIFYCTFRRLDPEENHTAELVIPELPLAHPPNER

[3] = molecular target: T3, 人CD137全长 (SEQ ID No.19)，表达于细胞 (human, UniProt Q07011 24-255); assay: flow cytometry (FACS) on CHO-K1/hCD137 cells, goat anti-human FITC; antibody at 250 nM
T3 construct: The full-length entry was transfected into CHO-K1 cells for FACS and into HEK293 cells for the reporter assay; also called CHO-K1/hCD137; 细胞表面人CD137
T3 sequence (Q07011 24-255 limits assumed): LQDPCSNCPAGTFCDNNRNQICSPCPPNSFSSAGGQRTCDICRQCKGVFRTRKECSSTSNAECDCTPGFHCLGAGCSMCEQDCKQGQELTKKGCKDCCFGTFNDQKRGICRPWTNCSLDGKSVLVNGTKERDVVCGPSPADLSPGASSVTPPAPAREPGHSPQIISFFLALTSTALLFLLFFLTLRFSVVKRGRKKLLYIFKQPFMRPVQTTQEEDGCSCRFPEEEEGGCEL

[4] = molecular target: T3, 人CD137全长 (SEQ ID No.19)，表达于细胞; assay: flow cytometry (FACS) on CHO-K1/hCD137 cells, goat anti-human FITC; 4-parameter logistic fit
[5] = molecular target: T3, 人CD137全长 (SEQ ID No.19)，表达于细胞; assay: flow cytometry (FACS) on CHO-K1/hCD137 cells, goat anti-human FITC; antibody at 0.342935528 nM
[6] = molecular target: T3, 人CD137全长 (SEQ ID No.19)，表达于细胞; assay: flow cytometry (FACS) on CHO-K1/hCD137 cells, goat anti-human FITC; antibody at 1.028806584 nM
[7] = molecular target: T3, 人CD137全长 (SEQ ID No.19)，表达于细胞; assay: flow cytometry (FACS) on CHO-K1/hCD137 cells, goat anti-human FITC; antibody at 27.77777778 nM
[8] = molecular target: T3, 人CD137全长 (SEQ ID No.19)，表达于细胞; assay: flow cytometry (FACS) on CHO-K1/hCD137 cells, goat anti-human FITC; antibody at 3.086419753 nM
[9] = molecular target: T3, 人CD137全长 (SEQ ID No.19)，表达于细胞; assay: flow cytometry (FACS) on CHO-K1/hCD137 cells, goat anti-human FITC; antibody at 83.33333333 nM
[10] = molecular target: T3, 人CD137全长 (SEQ ID No.19)，表达于细胞; assay: flow cytometry (FACS) on CHO-K1/hCD137 cells, goat anti-human FITC; antibody at 9.259259259 nM
[11] = molecular target: T4, 人PD-L1胞外段 (SEQ ID No.22 第19-238位)，带His标签 (human, UniProt Q9NZQ7 19-238); assay: bridging ELISA: human PD-L1-His coated, bispecific antibody, then human CD137-mouse Fc, goat anti-mouse HRP
T4 construct: It may be the same preparation as m7; not shown: His tag
T4 sequence (Q9NZQ7 19-238): as the sequence (Q9NZQ7 19-238) above

猴CD137胞外段 (SEQ ID No.20) = molecular target: T5, 猴CD137胞外段 (SEQ ID No.20) (monkey, UniProt Q07011 24-186 (human entry)); assay: ELISA, monkey CD137 extracellular domain coated, goat anti-human HRP
T5 construct: Expressed in HEK293; no tag is stated; also called 猴CD137抗原
T5 chain: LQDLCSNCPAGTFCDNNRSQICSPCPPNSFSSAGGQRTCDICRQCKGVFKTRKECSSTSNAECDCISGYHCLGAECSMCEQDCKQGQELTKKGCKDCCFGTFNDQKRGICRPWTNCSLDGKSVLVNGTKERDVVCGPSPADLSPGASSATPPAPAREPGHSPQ

猴PD-L1胞外段 (SEQ ID No.23) = molecular target: T6, 猴PD-L1胞外段 (SEQ ID No.23) (monkey, UniProt Q9NZQ7 19-238 (human entry)); assay: ELISA, monkey PD-L1 extracellular domain coated, goat anti-human HRP
T6 construct: Expressed in HEK293; no tag is stated; also called 猴PD-L1抗原
T6 sequence (Q9NZQ7 other isoform, or with tags, fused parts or gaps): as the sequence (Q9NZQ7 19-238) above, with A33T, A34S, S62N, R68Q, Q82R, F173L, T185A, T192I, H215L counted along it

Row | Binder | binding result [1] | binding result [2] | FACS signal (read-out name not given) [3] | EC50 [4] | FACS signal (read-out name not given) [5] | FACS signal (read-out name not given) [6] | FACS signal (read-out name not given) [7] | FACS signal (read-out name not given) [8] | FACS signal (read-out name not given) [9] | FACS signal (read-out name not given) [10] | binding result [11] | binding result (猴CD137胞外段 (SEQ ID No.20)) | binding result (猴PD-L1胞外段 (SEQ ID No.23))
1 | B1 | binds | binds | 16200 | 14.4 nM | 2680 | 3020 | 12100 | 4096 | 16100 | 8000 | binds | – | –
2 | B2 | binds | binds | 15300 | 16.4 nM | 2620 | 2770 | 11100 | 3930 | 15400 | 7030 | binds | binds | binds
3 | B3 | – | – | 16600 | 12.4 nM | 2590 | 2620 | 14600 | 2920 | 16700 | 7390 | – | – | –
